± gives the uncertainty stated by the source.

First the molecules themselves.
B1: POU domain, class 5, transcription factor 1, residues 134 to 212; numbered along this chain, Q01860 (parent)
chain: EESQDIKALQKELEQFAKLLKQKRITLGYTQADVGLTLGVLFGKVFSQTTICRFEALQLSFKNMCKLRPLLQKWVEEAD

Variants of B1 are the subject of this data set. The data set is described as follows: abundance fitness (aPCA) (normalised: wild type 0, dead -1); higher = more abundant; growth selection in yeast, the domain comes from the species named. Particulars: Homo sapiens.
Consider EESQDIKALQKELEQFAKLLKQKRITLGYTQADVGLTLGVEFGKVFSQTTICRFEALQLSFKNMCKLRPLLQKWVEEAD [L41E], for which the abundance fitness was -0.224 ± 0.21.
EESQDIKALQKELEQFAKLLKQKRITLGYTQADVGLTLGVRFGKVFSQTTICRFEALQLSFKNMCKLRPLLQKWVEEAD [L41R]: the abundance fitness is -0.345 ± 0.15.
To EESQDIKALQKELEQFAKLLKQKRITLGYTQADVGLTLGVQFGKVFSQTTICRFEALQLSFKNMCKLRPLLQKWVEEAD [L41Q] belongs 0.048 ± 0.29; to EESQDIKALQKELEQFAKLLKQKRITLGYTQADVGLTLGVAFGKVFSQTTICRFEALQLSFKNMCKLRPLLQKWVEEAD [L41A], -0.695 ± 0.38; to EESQDIKALQKELEQFAKLLKQKRITLGYTQADVGLTLGVTFGKVFSQTTICRFEALQLSFKNMCKLRPLLQKWVEEAD [L41T], -0.04 ± 0.35.
The same measure for EESQDIKALQKELEQFAKLLKQKRITLGYTQADVGLTLGVGFGKVFSQTTICRFEALQLSFKNMCKLRPLLQKWVEEAD [L41G]: -0.934 ± 0.31.
As for EESQDIKALQKELEQFAKLLKQKRITLGYTQADVGLTLGVLFRKVFSQTTICRFEALQLSFKNMCKLRPLLQKWVEEAD [G43R], the abundance fitness is -0.613 ± 0.17.
On to EESQDIKALQKELEQFAKLLKQKRITLGYTQADVGLTLGVLFNKVFSQTTICRFEALQLSFKNMCKLRPLLQKWVEEAD [G43N], for which the abundance fitness is -0.341 ± 0.37.
In the case of EESQDIKALQKELEQFAKLLKQKRITLGYTQADVGLTLGVLFAKVFSQTTICRFEALQLSFKNMCKLRPLLQKWVEEAD [G43A], the abundance fitness is -0.282 ± 0.3.
As for EESQDIKALQKELEQFAKLLKQKRITLGYTQADVGLTLGVLFKKVFSQTTICRFEALQLSFKNMCKLRPLLQKWVEEAD [G43K], the abundance fitness was -0.516 ± 0.31.
For the variant EESQDIKALQKELEQFAKLLKQKRITLGYTQADVGLTLGVLFSKVFSQTTICRFEALQLSFKNMCKLRPLLQKWVEEAD [G43S], the abundance fitness was -0.651 ± 0.46.
On to EESQDIKALQKELEQFAKLLKQKRITLGYTQADVGLTLGVLFCKVFSQTTICRFEALQLSFKNMCKLRPLLQKWVEEAD [G43C], for which the abundance fitness is -0.485 ± 0.41.
To EESQDIKALQKELEQFAKLLKQKRITLGYTQADVGLTLGVLFVKVFSQTTICRFEALQLSFKNMCKLRPLLQKWVEEAD [G43V] belongs -0.585 ± 0.23; to EESQDIKALQKELEQFAKLLKQKRITLGYTQADVGLTLRVLFGKVFSQTTICRFEALQLSFKNMCKLRPLLQKWVEEAD [G39R], -0.318 ± 0.095.
Turning to EESQDIKALQKELEQFAKLLKQKRITLGYTQADVGLTLKVLFGKVFSQTTICRFEALQLSFKNMCKLRPLLQKWVEEAD [G39K], the abundance fitness was -0.187 ± 0.24.
As for EESQDIKALQKELEQFAKLLKQKRITLGYTQADVGLTLEVLFGKVFSQTTICRFEALQLSFKNMCKLRPLLQKWVEEAD [G39E], the abundance fitness is -0.469 ± 0.17.
In the case of EESQDIKALQKELEQFAKLLKQKRITLGYTQADVGLTLDVLFGKVFSQTTICRFEALQLSFKNMCKLRPLLQKWVEEAD [G39D], the abundance fitness was -0.852 ± 0.42.
The same measure for EESQDIKALQKELEQFAKLLKQKRITLGYTQADVGLTLVVLFGKVFSQTTICRFEALQLSFKNMCKLRPLLQKWVEEAD [G39V]: -0.85 ± 0.27; for EESQDIKALQKELEQFAKLLKQKRITLGYTQADVGLTLHVLFGKVFSQTTICRFEALQLSFKNMCKLRPLLQKWVEEAD [G39H]: -0.441 ± 0.39.
EESQDIKALQKELEQFAKLLKQKRITLGYTQADVGLTLTVLFGKVFSQTTICRFEALQLSFKNMCKLRPLLQKWVEEAD [G39T]: the abundance fitness is -0.613 ± 0.28.
The same measure for EESQDIKALQKELEQFAKLLKQKRITLGYTQADVGLTLSVLFGKVFSQTTICRFEALQLSFKNMCKLRPLLQKWVEEAD [G39S]: -0.006 ± 0.092; for EESQDIKALQKELEQFAKLLKQKRITLGYTQADVGLTLPVLFGKVFSQTTICRFEALQLSFKNMCKLRPLLQKWVEEAD [G39P]: -0.325 ± 0.27; for EESQDIKALQKELEQFAKLLKQKRITLGYTQADVGLTLWVLFGKVFSQTTICRFEALQLSFKNMCKLRPLLQKWVEEAD [G39W]: -0.712 ± 0.33.
The same measure for EESQDIKALQKELEQFAKLLKQKRITLGYTQADVGLTLAVLFGKVFSQTTICRFEALQLSFKNMCKLRPLLQKWVEEAD [G39A]: -0.534 ± 0.19; for EESQDIKALQKELEQFAKLLKQKRITLGYTQADVGLTLGVLFGEVFSQTTICRFEALQLSFKNMCKLRPLLQKWVEEAD [K44E]: 0.016 ± 0.077; for EESQDIKALQKELEQFAKLLKQKRITLGYTQADVGLTLGVLFGVVFSQTTICRFEALQLSFKNMCKLRPLLQKWVEEAD [K44V]: -0.441 ± 0.11.
To EESQDIKALQKELEQFAKLLKQKRITLGYTQADVGLTLGVLFGDVFSQTTICRFEALQLSFKNMCKLRPLLQKWVEEAD [K44D] belongs -0.262 ± 0.2; to EESQDIKALQKELEQFAKLLKQKRITLGYTQADVGLTLGVLFGCVFSQTTICRFEALQLSFKNMCKLRPLLQKWVEEAD [K44C], -0.381 ± 0.18.
As for EESQDIKALQKELEQFAKLLKQKRITLGYTQADVGLTLGVLFGSVFSQTTICRFEALQLSFKNMCKLRPLLQKWVEEAD [K44S], the abundance fitness was -0.805 ± 0.33.
For the variant EESQDIKALQKELEQFAKLLKQKRITLGYTQADVGLTLGVLFGQVFSQTTICRFEALQLSFKNMCKLRPLLQKWVEEAD [K44Q], the abundance fitness came to 0.018 ± 0.091.
The same measure for EESQDIKALQKELEQFAKLLKQKRITLGYTQADVGLTLGVLFGGVFSQTTICRFEALQLSFKNMCKLRPLLQKWVEEAD [K44G]: -0.382 ± 0.079; for EESQDIKALQKELEQFAKLLKQKRITLGYTQADVGLTLGVLFGNVFSQTTICRFEALQLSFKNMCKLRPLLQKWVEEAD [K44N]: -0.26 ± 0.23; for EESQDIKALQKELEQFAKLLKQKRITLGYTQADVGLTLGVLFGMVFSQTTICRFEALQLSFKNMCKLRPLLQKWVEEAD [K44M]: -0.374 ± 0.39.
In the case of EESQDIKALQKELEQFAKLLKQKRITLGYTQADVGLTLGVLFGHVFSQTTICRFEALQLSFKNMCKLRPLLQKWVEEAD [K44H], the abundance fitness is -0.181 ± 0.27.
The same measure for EESQDIKALQKELEQFAKLLKQKRITLGYTQADVGLTLGVLFGPVFSQTTICRFEALQLSFKNMCKLRPLLQKWVEEAD [K44P]: -0.3 ± 0.15.

These data come from the Human Domainome abundance scans (Beltran et al. 2025).
